Here are results for one substance from patent US20170102390A1.

The target in test [1] is CK8/18 Ab (mouse antibody detected by the secondary anti-mouse antibody). As to the kind of experiment: microscopy count on SKBR3 cells; 80 uL anti-mouse IgG-biotin, 7.5 uL Mag-Strept, 7.5 uL Mag-anti FITC.
For test [2] the target is unchanged. As to the kind of experiment: microscopy count on SKBR3 cells; 80 uL anti-mouse IgG-biotin, 7.5 uL Mag-Strept, 0 uL Mag-anti FITC.

As for “Secondary antibody-biotin = goat anti-mouse IgG biotin (whole molecule)-Biotin”, the Carrier particles per cancer cell (carrier particles per cancer cell) came out at 1110 in test [1] and 133 in test [2].
